Measured values published in US20170266254A1 (AILERON THERAPEUTICS, published 2017).
Bridges are numbered along the chain shown (N, C = ends). [ ]: non-standard residue; d: D form. S5 = C=CCCC[C@](C)(N)C(=O)O

T1: C-terminally 6x Histidine-tagged Beta-Catenin (aa 134-668, 59 KD) (UniProt P35222 134-668)
T1 construct: range 134-668; Armadillo repeat region
T1 sequence: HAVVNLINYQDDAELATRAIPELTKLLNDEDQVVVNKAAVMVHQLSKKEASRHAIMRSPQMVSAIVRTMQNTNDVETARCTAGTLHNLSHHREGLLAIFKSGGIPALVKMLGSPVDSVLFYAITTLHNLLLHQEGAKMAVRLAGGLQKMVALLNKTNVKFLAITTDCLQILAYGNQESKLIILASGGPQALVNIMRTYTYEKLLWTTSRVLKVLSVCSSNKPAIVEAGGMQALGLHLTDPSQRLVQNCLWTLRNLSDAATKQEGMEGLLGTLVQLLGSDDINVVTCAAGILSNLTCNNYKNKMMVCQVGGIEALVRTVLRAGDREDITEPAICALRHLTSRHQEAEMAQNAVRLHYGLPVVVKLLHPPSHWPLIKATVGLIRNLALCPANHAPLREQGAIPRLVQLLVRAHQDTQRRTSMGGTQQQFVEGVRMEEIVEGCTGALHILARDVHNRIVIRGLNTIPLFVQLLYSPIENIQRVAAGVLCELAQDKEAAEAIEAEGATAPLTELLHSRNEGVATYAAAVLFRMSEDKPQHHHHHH

B1: SP13 (peptide)
peptide: Ac-SAERDLADVKS[S5]LVN[S5]SEKR-NH2
modifications: staple 12-16
SMILES: CC(=O)N[C@@H](CO)C(=O)N[C@@H](C)C(=O)N[C@@H](CCC(=O)O)C(=O)N[C@@H](CCCNC(=N)N)C(=O)N[C@@H](CC(=O)O)C(=O)N[C@@H](CC(C)C)C(=O)N[C@@H](C)C(=O)N[C@@H](CC(=O)O)C(=O)N[C@H](C(=O)N[C@@H](CCCCN)C(=O)N[C@@H](CO)C(=O)N[C@@]1(C)CCCC=CCCC[C@@](C)(C(=O)N[C@@H](CO)C(=O)N[C@@H](CCC(=O)O)C(=O)N[C@@H](CCCCN)C(=O)N[C@@H](CCCNC(=N)N)C(N)=O)NC(=O)[C@H](CC(N)=O)NC(=O)[C@H](C(C)C)NC(=O)[C@H](CC(C)C)NC1=O)C(C)C
B2: SP23 (peptide)
peptide: Ac-SAE[S5]DLA[S5]VKSSLVNESEKR-NH2
modifications: staple 4-8
SMILES: CC(=O)N[C@@H](CO)C(=O)N[C@@H](C)C(=O)N[C@@H](CCC(=O)O)C(=O)N[C@@]1(C)CCCC=CCCC[C@@](C)(C(=O)N[C@H](C(=O)N[C@@H](CCCCN)C(=O)N[C@@H](CO)C(=O)N[C@@H](CO)C(=O)N[C@@H](CC(C)C)C(=O)N[C@H](C(=O)N[C@@H](CC(N)=O)C(=O)N[C@@H](CCC(=O)O)C(=O)N[C@@H](CO)C(=O)N[C@@H](CCC(=O)O)C(=O)N[C@@H](CCCCN)C(=O)N[C@@H](CCCNC(=N)N)C(N)=O)C(C)C)C(C)C)NC(=O)[C@H](C)NC(=O)[C@H](CC(C)C)NC(=O)[C@H](CC(=O)O)NC1=O
B3: SP37 (peptide)
peptide: LGANDELISFADEGAQEEKSSNNSSAARDLADVKSSLV
modifications: not fully specified; N-terminal acetyl; C-terminal amide; $ = (S)-alpha-(2'-pentenyl)alanine at positions 11 and 15 (first crosslink) and 27 and 31 (second crosslink), each pair joined by an all-carbon crosslinker with one double bond
B4: SP29 (peptide)
peptide: Ac-LGANDELISFKDEGE[S5]EEK[S5]SNNSSAERDLADVKSSLV-NH2
modifications: staple 16-20
SMILES: CC[C@H](C)[C@H](NC(=O)[C@H](CC(C)C)NC(=O)[C@H](CCC(=O)O)NC(=O)[C@H](CC(=O)O)NC(=O)[C@H](CC(N)=O)NC(=O)[C@H](C)NC(=O)CNC(=O)[C@H](CC(C)C)NC(C)=O)C(=O)N[C@@H](CO)C(=O)N[C@@H](Cc1ccccc1)C(=O)N[C@@H](CCCCN)C(=O)N[C@@H](CC(=O)O)C(=O)N[C@@H](CCC(=O)O)C(=O)NCC(=O)N[C@@H](CCC(=O)O)C(=O)N[C@@]1(C)CCCC=CCCC[C@@](C)(C(=O)N[C@@H](CO)C(=O)N[C@@H](CC(N)=O)C(=O)N[C@@H](CC(N)=O)C(=O)N[C@@H](CO)C(=O)N[C@@H](CO)C(=O)N[C@@H](C)C(=O)N[C@@H](CCC(=O)O)C(=O)N[C@@H](CCCNC(=N)N)C(=O)N[C@@H](CC(=O)O)C(=O)N[C@@H](CC(C)C)C(=O)N[C@@H](C)C(=O)N[C@@H](CC(=O)O)C(=O)N[C@H](C(=O)N[C@@H](CCCCN)C(=O)N[C@@H](CO)C(=O)N[C@@H](CO)C(=O)N[C@@H](CC(C)C)C(=O)N[C@H](C(N)=O)C(C)C)C(C)C)NC(=O)[C@H](CCCCN)NC(=O)[C@H](CCC(=O)O)NC(=O)[C@H](CCC(=O)O)NC1=O
B5: SP24 (peptide)
peptide: Ac-LGANAELISFKDEGEQEEKSSENSSAERDLADVKSSLV-NH2
notes: Linear, not crosslinked; differs from SP14 by Asp to Ala at the fifth residue of the peptide
B6: SP28 (peptide)
peptide: Ac-LGANDELISFKDEG[S5]QEE[S5]SSNNSSAERDLADVKSSLV-NH2
modifications: staple 15-19
SMILES: CC[C@H](C)[C@H](NC(=O)[C@H](CC(C)C)NC(=O)[C@H](CCC(=O)O)NC(=O)[C@H](CC(=O)O)NC(=O)[C@H](CC(N)=O)NC(=O)[C@H](C)NC(=O)CNC(=O)[C@H](CC(C)C)NC(C)=O)C(=O)N[C@@H](CO)C(=O)N[C@@H](Cc1ccccc1)C(=O)N[C@@H](CCCCN)C(=O)N[C@@H](CC(=O)O)C(=O)N[C@@H](CCC(=O)O)C(=O)NCC(=O)N[C@@]1(C)CCCC=CCCC[C@@](C)(C(=O)N[C@@H](CO)C(=O)N[C@@H](CO)C(=O)N[C@@H](CC(N)=O)C(=O)N[C@@H](CC(N)=O)C(=O)N[C@@H](CO)C(=O)N[C@@H](CO)C(=O)N[C@@H](C)C(=O)N[C@@H](CCC(=O)O)C(=O)N[C@@H](CCCNC(=N)N)C(=O)N[C@@H](CC(=O)O)C(=O)N[C@@H](CC(C)C)C(=O)N[C@@H](C)C(=O)N[C@@H](CC(=O)O)C(=O)N[C@H](C(=O)N[C@@H](CCCCN)C(=O)N[C@@H](CO)C(=O)N[C@@H](CO)C(=O)N[C@@H](CC(C)C)C(=O)N[C@H](C(N)=O)C(C)C)C(C)C)NC(=O)[C@H](CCC(=O)O)NC(=O)[C@H](CCC(=O)O)NC(=O)[C@H](CCC(N)=O)NC1=O
B7: SP26 (peptide)
peptide: LGANDELISFADEGAQEEKSSNNSSAERDLADVKSSLV
modifications: not fully specified; N-terminal acetyl; C-terminal amide; $ = (S)-alpha-(2'-pentenyl)alanine at positions 11 and 15, joined by an all-carbon crosslinker with one double bond
B8: SP14 (peptide)
peptide: Ac-LGANDELISFKDEGEQEEKSSENSSAERDLADVKSSLV-NH2
notes: Linear, not crosslinked
B9: SP27 (peptide)
peptide: Ac-LGANDELISFK[S5]EGE[S5]EEKSSNNSSAERDLADVKSSLV-NH2
modifications: staple 12-16
SMILES: CC[C@H](C)[C@H](NC(=O)[C@H](CC(C)C)NC(=O)[C@H](CCC(=O)O)NC(=O)[C@H](CC(=O)O)NC(=O)[C@H](CC(N)=O)NC(=O)[C@H](C)NC(=O)CNC(=O)[C@H](CC(C)C)NC(C)=O)C(=O)N[C@@H](CO)C(=O)N[C@@H](Cc1ccccc1)C(=O)N[C@@H](CCCCN)C(=O)N[C@@]1(C)CCCC=CCCC[C@@](C)(C(=O)N[C@@H](CCC(=O)O)C(=O)N[C@@H](CCC(=O)O)C(=O)N[C@@H](CCCCN)C(=O)N[C@@H](CO)C(=O)N[C@@H](CO)C(=O)N[C@@H](CC(N)=O)C(=O)N[C@@H](CC(N)=O)C(=O)N[C@@H](CO)C(=O)N[C@@H](CO)C(=O)N[C@@H](C)C(=O)N[C@@H](CCC(=O)O)C(=O)N[C@@H](CCCNC(=N)N)C(=O)N[C@@H](CC(=O)O)C(=O)N[C@@H](CC(C)C)C(=O)N[C@@H](C)C(=O)N[C@@H](CC(=O)O)C(=O)N[C@H](C(=O)N[C@@H](CCCCN)C(=O)N[C@@H](CO)C(=O)N[C@@H](CO)C(=O)N[C@@H](CC(C)C)C(=O)N[C@H](C(N)=O)C(C)C)C(C)C)NC(=O)[C@H](CCC(=O)O)NC(=O)CNC(=O)[C@H](CCC(=O)O)NC1=O
B10: SP25 (peptide)
peptide: Ac-LGANAELISFKDEGEQEEKSSENSSAERDLADAKSSAV-NH2
notes: Linear, not crosslinked; differs from SP14 by Ala at peptide positions 5, 33 and 37

The binders below were run against T1, C-terminally 6x Histidine-tagged … (assay: competitive fluorescence polarization, FAM-labelled linear probe as competitor, His-tagged beta-catenin 134-668).
Method: The following experiments are performed at room temperature unless otherwise noted. First, an assay buffer is prepared composed of 25 mM Tris-Hcl pH 7.5, 200 mM Sodium Chloride, and 5 mM CHAPS. Next, 1M DTT is added to assay buffer to a final concentration of 2 mM. […] Forty μl of this protein stock is added to all but six wells of a 96 well plate (which will serve as the free peptide and Blank). Test competitor peptides are diluted from 1 mM DMSO stocks to 2× working stocks in assay buffer. Further dilutions are made in assay buffer-DMSO as to maintain a constant DMSO concentration in all wells. The dilution is carried out such that the peptides have a working concentration range of 40 μM-0.7 μM (2×). As a benchmark, a linear, non-crosslinked peptide competitor is prepared as above but with a working concentration range of 13-0.7 μM. Fifty μl of the competitor 2× stocks are added to the 40 μl of protein solution previously transferred into the assay 96 well plate. Next, a 10× stock of the fluorescent probe is prepared. The probe is identical to the linear benchmark peptide except for the n-terminal conjugation of a FAM flourophore with Beta-Alanine spacer. A 1 mM DMSO stock of the probe is serially diluted to a final concentration of 25 nM (10×) and 10 μl of this stock is added to all wells except for those that will serve as the blank. The assay plate is stored in the dark and the reaction is allowed to run at room temperature for three hours. The reaction is then read on a Biotek Synergy 2 with the following settings: 100 ms delay, 40 measurements per well, with excitation filters of […], and emission filters of […]. Data is then analyzed in Graphpad Prism.
B1 was tested, and the IC50 was at least 100000 nM.
Work on B2 yielded an IC50 of at least 100000 nM.
Binder B3 has an IC50 of 56 nM.
With B4 the IC50 was 223 nM.
In the case of B5, the IC50 is reported as at least 100000 nM.
For B6, the IC50 was 158 nM.
Binder B7 has an IC50 of 42 nM.
Work on B8 yielded an IC50 of 95 nM.
B9 gave an IC50 of 158 nM.
B10 showed an IC50 of at least 100000 nM.
